For three substances, Kd, koff and kon results are on record in US20250263461A1.

Assay [1] deals with NY-ESO-1 and/or LAGE-1a peptide on HLA-A*02:01 (human). The assay is described as follows: value quoted for comparison with 1G4LY; no measurement of 1G4 is described in this filing.
The target is the same in assay [2]. The assay is described as follows: surface plasmon resonance; biotinylated pMHC on streptavidin chip, soluble TCR as analyte; 1:1 binding model; soluble, other. (Surface plasmon resonance follows binding to a sensor surface in real time, without labels.)
Assay [3] shares this target. The assay is described as follows: surface plasmon resonance; biotinylated pMHC on streptavidin chip, soluble TCR 0 to 250 nM as analyte; 1:1 binding model; soluble, other.
Assay [4] addresses pMHC1 complex: Biotin-HLA-A*02:01-… (SEQ ID NO: 1). The assay is described as follows: SPR, pMHC on streptavidin chip, soluble TCR as analyte, 1:1 binding model.

For 1G4 TCR, the Kd (commonly the concentration at which binding is half-saturated) in assay [1] stood at 32000 nM.
With 1G4LY TCR, in assay [2], the koff (in general, the rate constant with which the complex falls apart) was found to be 0.0303 s⁻¹ and the kon (in general, the rate constant with which the complex forms) came out at 39800 M⁻¹ s⁻¹. Also, in assay [3], the dissociation constant (Kd) came out at 761 nM.
For soluble 1G4LY TCR, in assay [4], the Kd worked out at 761 nM, the koff was 0.0303 s⁻¹ and the kon was 39800 M⁻¹ s⁻¹.
